Results from US20250092135A1 (NANJING LEADS BIOLABS, published 2025).

T1: human MUC16 protein (ECT_TM huMuc16) on 293T cells (human)
T1 chain: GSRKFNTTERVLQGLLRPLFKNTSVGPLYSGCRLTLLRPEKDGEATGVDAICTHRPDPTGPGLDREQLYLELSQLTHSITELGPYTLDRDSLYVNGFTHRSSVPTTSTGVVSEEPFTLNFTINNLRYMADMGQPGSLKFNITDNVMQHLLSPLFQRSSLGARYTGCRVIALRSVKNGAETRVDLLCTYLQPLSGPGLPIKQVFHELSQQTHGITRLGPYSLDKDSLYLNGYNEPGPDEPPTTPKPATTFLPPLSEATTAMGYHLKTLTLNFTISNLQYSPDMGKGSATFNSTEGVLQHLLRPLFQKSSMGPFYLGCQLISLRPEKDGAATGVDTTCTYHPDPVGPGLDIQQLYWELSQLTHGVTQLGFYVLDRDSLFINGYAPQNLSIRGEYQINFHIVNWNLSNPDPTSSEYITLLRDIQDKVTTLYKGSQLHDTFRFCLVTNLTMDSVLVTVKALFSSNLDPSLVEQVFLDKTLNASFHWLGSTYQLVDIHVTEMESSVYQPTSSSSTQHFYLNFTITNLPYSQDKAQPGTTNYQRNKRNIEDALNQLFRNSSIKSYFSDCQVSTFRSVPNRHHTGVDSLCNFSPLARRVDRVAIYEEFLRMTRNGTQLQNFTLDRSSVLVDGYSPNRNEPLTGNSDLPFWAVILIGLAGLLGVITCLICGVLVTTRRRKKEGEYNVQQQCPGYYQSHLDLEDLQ

T2: rhesus monkey MUC16 protein (ECT_TM RhMuc16) on 293T cells (rhesus monkey)
T2 chain: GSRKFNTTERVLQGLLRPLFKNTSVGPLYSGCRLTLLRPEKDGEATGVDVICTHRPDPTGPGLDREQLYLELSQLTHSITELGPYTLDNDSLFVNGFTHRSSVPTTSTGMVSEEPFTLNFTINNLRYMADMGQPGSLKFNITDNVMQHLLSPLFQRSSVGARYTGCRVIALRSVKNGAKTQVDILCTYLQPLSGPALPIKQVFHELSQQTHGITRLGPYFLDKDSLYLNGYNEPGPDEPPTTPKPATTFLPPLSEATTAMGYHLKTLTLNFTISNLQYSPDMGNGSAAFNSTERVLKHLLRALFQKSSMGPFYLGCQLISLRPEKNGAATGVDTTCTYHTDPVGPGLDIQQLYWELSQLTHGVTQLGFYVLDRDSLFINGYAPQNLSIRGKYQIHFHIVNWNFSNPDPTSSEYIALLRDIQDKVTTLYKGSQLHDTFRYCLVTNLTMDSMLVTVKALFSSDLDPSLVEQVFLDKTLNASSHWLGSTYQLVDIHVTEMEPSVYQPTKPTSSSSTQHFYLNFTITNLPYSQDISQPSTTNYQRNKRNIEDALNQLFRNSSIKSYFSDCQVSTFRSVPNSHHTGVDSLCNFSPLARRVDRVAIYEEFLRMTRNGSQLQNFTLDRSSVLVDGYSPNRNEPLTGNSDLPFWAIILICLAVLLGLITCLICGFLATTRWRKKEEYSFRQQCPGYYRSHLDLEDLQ

T3: Rhesus monkey MUC16-His (rhesus monkey)
T3 construct: The entry includes the C-terminal 6xHis tag; also called membrane-proximal end of the extracellular region of the rhesus monkey MUC16 protein
T3 chain: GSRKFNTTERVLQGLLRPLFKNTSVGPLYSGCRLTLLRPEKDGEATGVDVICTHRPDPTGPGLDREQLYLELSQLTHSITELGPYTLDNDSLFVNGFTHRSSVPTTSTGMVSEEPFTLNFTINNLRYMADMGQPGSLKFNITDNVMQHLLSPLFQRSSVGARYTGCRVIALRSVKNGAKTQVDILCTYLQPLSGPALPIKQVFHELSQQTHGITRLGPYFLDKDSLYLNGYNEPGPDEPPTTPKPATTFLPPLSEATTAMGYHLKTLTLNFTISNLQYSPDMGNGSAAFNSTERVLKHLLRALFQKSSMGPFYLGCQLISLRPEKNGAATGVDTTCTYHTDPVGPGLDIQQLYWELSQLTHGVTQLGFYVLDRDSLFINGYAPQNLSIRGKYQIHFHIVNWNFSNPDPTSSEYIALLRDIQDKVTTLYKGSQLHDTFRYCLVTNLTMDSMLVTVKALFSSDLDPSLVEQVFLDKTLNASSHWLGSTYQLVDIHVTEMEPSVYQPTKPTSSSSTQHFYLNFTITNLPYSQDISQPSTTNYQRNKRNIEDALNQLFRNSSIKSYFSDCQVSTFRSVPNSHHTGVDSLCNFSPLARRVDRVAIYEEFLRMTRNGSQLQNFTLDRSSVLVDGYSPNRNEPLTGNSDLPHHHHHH

T4: Human MUC16-His (human)
T4 construct: The entry includes the C-terminal 6xHis tag; also called membrane-proximal end of the extracellular region of the human MUC16 protein; Human MUC16 protein
T4 chain: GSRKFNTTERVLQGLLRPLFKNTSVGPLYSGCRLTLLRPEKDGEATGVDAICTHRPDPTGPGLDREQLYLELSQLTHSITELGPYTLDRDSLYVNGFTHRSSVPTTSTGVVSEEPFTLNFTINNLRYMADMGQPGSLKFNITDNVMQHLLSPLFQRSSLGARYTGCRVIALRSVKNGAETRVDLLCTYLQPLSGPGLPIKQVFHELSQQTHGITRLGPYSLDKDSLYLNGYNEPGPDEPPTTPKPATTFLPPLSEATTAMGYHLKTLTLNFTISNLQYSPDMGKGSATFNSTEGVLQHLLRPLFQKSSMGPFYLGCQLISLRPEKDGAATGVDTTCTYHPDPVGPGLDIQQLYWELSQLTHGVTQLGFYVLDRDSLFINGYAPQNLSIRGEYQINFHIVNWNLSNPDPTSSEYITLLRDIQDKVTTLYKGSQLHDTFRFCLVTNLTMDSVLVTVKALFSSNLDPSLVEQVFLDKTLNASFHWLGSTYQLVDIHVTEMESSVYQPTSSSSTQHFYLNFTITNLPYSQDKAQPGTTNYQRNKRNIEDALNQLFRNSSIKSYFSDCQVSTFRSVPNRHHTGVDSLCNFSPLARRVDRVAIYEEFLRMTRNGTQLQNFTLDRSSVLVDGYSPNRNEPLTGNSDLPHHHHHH


Columns and labels:
[1] = biological target: T1, human MUC16 protein (ECT_TM huMuc16) on …; assay: flow cytometry, 293T/hMUC16 cells, PE anti-human IgG Fc secondary, MFI; EC50 table under the plot, unit from the axis Conc.(nM)
Protocol: (§1) The serially diluted anti-human MUC16 antibodies (at an initial concentration of 200 nM, 4-fold dilution, 8 points in total) obtained in the present application were added to the cells, and the cells were incubated at 4° C. for 30 min. The cells were washed twice with PBS, and then fluorescent secondary antibody R-PE-conjugated AffiniPure Goat Anti-Human IgG, Fcγ Fragment Specific (Jackson ImmunoResearch, Cat #109-116-098) was added. The cells were incubated at 4° C. for 30 min. The cells were washed twice with PBS and then resuspended, and finally, fluorescence signals were detected using a BD Accuri C5 (BD Bioscience) flow cytometer.

[2] = biological target: T2, rhesus monkey MUC16 protein (ECT_TM …); assay: flow cytometry, 293T/rhesus MUC16 cells, PE anti-human IgG Fc secondary, MFI; EC50 table under the plot, unit from the axis Conc.(nM)
Protocol: as §1

Rhesus monkey MUC16-His = biological target: T3, Rhesus monkey MUC16-His; assay: BLI (ForteBio Octet RED96), antibody on AHC sensor, 50 nM antigen, 1:1 model
Source text: (§2) The binding affinity of the anti-MUC-16 antibodies for the membrane-proximal end of the extracellular region of the human MUC16 protein (human MUC16-His, Table 26) and the membrane-proximal end of the extracellular region of the rhesus monkey MUC16 protein (rhesus monkey MUC16-His, Table 26) was detected by ForteBio Octet RED96, respectively. According to the manufacturer's instructions, an AHC sensor (ForteBio, Cat #18-5060) was placed in a running buffer (lx PBS, Hyclone, Cat #SH30256.01, containing 0.02% Tween 20, pH 7.0) and pre-equilibrated at room temperature for 10 min. In a 96-well plate, the kinetic assay was performed according to the following steps: a) equilibrating the baseline for 100 s with the running buffer; b) diluting the anti-MUC-16 antibodies with the running buffer to 5 μg/mL, immobilizing for 200 s, and stopping; c) equilibrating the baseline for 300 s with the running buffer; and d) diluting the human or rhesus monkey MUC16 protein with the running buffer to 50 nM, binding for 200 s, and dissociating for 600 s. The experimental data were fitted and calculated using a Fortebio Data Analysis software 1:1 binding model.

Human MUC16-His = biological target: T4, Human MUC16-His; assay: as above
Source text: as §2

| EC50 [1] | EC50 [2] | Kd (Rhesus monkey MUC16-His) | koff (Rhesus monkey MUC16-His) | kon (Rhesus monkey MUC16-His) | Kd (Human MUC16-His) | koff (Human MUC16-His) | kon (Human MUC16-His) | Binder |
| --- | --- | --- | --- | --- | --- | --- | --- | --- |
| 2.58 nM | 4.87 nM | 1.82 nM | 0.00156 s⁻¹ | 856000 M⁻¹ s⁻¹ | 0.359 nM | 0.000168 s⁻¹ | 468000 M⁻¹ s⁻¹ | murine anti-MUC16 antibody 776.1 (antibody, human IgG1, kappa, L234A L235A, V domains shown, Murine variable regions on human IgG1 (L234A, L235A, D265A, P329A) and kappa constant regions) VH: EVQLQQSGPELVKPGASVKISCKASGYTFTDYNIHWVKQSHGKILEWIGYIYPYNGVSDYNQNFKSKATLIVDNSSNTAYMELRSLTSEDSAVYYCARWDFGSGYYFDYWGQGTTLTVSS VL: QIVLSQSPAILFASPGETVTMTCRASSSVIYMCWNQQKPGSSPKPWIYGTSTLASGVPTRFSGSGSGTSYSLTISRVEAEDAATYYCQQWSSNPFTFGSGTKLEIKR |
| 8.72 nM | 11.1 nM | 1.2 nM | 0.000945 s⁻¹ | 791000 M⁻¹ s⁻¹ | 1.36 nM | 0.000348 s⁻¹ | 255000 M⁻¹ s⁻¹ | anti-MUC16 antibody 776.1(C33A) (antibody, human IgG1, kappa, L234A L235A, V domains shown) VH: EVQLQQSGPELVKPGASVKISCKASGYTFTDYNIHWVKQSHGKILEWIGYIYPYNGVSDYNQNFKSKATLIVDNSSNTAYMELRSLTSEDSAVYYCARWDFGSGYYFDYWGQGTTLTVSS VL: QIVLSQSPAILFASPGETVTMTCRASSSVIYMAWNQQKPGSSPKPWIYGTSTLASGVPTRFSGSGSGTSYSLTISRVEAEDAATYYCQQWSSNPFTFGSGTKLEIKR |
